# According to the supplement of paper PMC12764529:
# ± gives the half width of the 95% confidence interval.
# Test: folding stability dG unfold (combined trypsin and chymotrypsin); higher = more stable
# Description: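 Folding stability of de novo designed mini-proteins (<80 aa, no Cys; designed by TrROS, TrMRF, ProteinMPNN and the joint model) was measured by cDNA display proteolysis with trypsin and chymotrypsin. Each protease was used at 11 concentrations in a threefold dilution series plus a no-protease condition. K50 was inferred by Bayesian fitting of sequencing counts, and dG unfold was derived against a sequence-predicted unfolded-state K50 (Tsuboyama et al. method). Sequences shown include variable-length N-terminal GS-type padding (SAGGSAGG...) inside a display construct carrying a PA tag. Rows were kept only if the AF2 dimer inter-PAE was >15, to exclude likely homo-oligomers.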
row,Sequence,folding stability dG unfold [kcal/mol]
1,SAGGSAGGGMITVPLSEEISMANLPEEERAAGEELGPGSVIRKLLEIKKYPVKPFRFIEKDKILSAGGSAGG [r6_547_JUSTAS],< -1
2,SAGGSKDKKMPPEQAKQVQVRVEIPIRVYRPGDGGEPHDFPIEIWGPMKSPEEADKEVNDAIDEFFSAGGSA [r2_244_TrROS],< -1
3,SAGGSAGGSAGGSVTVSLSELKKILKEKGNPGTVEEILEDPNVSVSKDPNSSNEIVTIPGSAGGSAGGSAGG [r7_180_JUSTAS],< -1
4,SAGGITLEELRGMPPEQLADWLVQEAQEQNKKEGNPNRPVTVEFEYGDQPLKIEITPNGKIEKIELDSAGGS [r16_431_TrROS],< -1
5,SAGGSTVVTEVSVSPGNPTLTLDSKTPDGKVVAKRVAAPADATATFEVKQTINGNPVITTVTQAPEASAGGS [r16_672_JUSTAS],< -1
6,SAGMIVKTVTVSPEVPPEEVAERLKRENPWIKEVKPEKVTSVTVPNPGKTLLTVTITIELDDVPEEVLKSAG [r5_326_JUSTAS],< -1
7,SAGGSEEFEFRDPFNGEEFEVTRDPNNGELDVEYPNGWKMRISITDDRFEIVEMKPVPPPPVDPDQKSAGGS [r16_687_TrROS],< -1
8,SAGGSAGGSTMEKLQDKAKELGPNVSVEPSQDGPDSIKITFDPDHPKKIKDIAKEYGIKVQIYSAGGSAGGS [r12_74_TrROS],< -1
9,SAGGSAGGVRVRVVYPDGEPIGEIDIQLPPEMPQDQRQVKELAENIASRFKENGRKVKVEIEPPSAGGSAGG [r6_884_TrROS],< -1
10,SAGGSAGGSAGGMVTNEVIEVDPANPEEVIAEIKAKGKAEAKKIEKLEGDKMKVYVKTSLSAGGSAGGSAGG [r7_589_JUSTAS],< -1
11,SAGGSAMTLVEEVPVAPGTLVEAESIAVSPEGKIYRSRVEGLEPGRARVTVPVEELPGNLEDPELISAGGSA [r15_909_JUSTAS],< -1
12,SAGGSAGGSAGMKKLVKITARVPDEKGNPILVEYEEEVDLKPSDSLPVPEGVLEEIEILESAGGSAGGSAGG [r11_664_JUSTAS],< -1
13,SAGGSAGGSSMPVLPVRTEEFPHPDSVYTVTTTRYPPTGATVTVLSTRFPGPPEVVTSTTVTPSAGGSAGGS [r12_14_JUSTAS],< -1
14,SAGGSAGGSAGGELVLPELNKPLNVEKEEVVVEGGEEVVKIKATGSGKPFEYVVPKGLGSAGGSAGGSAGGS [r10_517_JUSTAS],< -1
15,SAGGSAGGSAGAPDEPIQITMRLKYPDGQKREHNTPFPPGKDIEIKNMPPGAKIENIEITSAGGSAGGSAGG [r11_181_TrROS],< -1
16,SAGGSAGGSMTFKLKDGKVITYDPANPTLHFPGPPETIPTGGANIAQTIADLKAKGFDYEEVVESAGGSAGG [r6_340_JUSTAS],< -1
17,SAGGSAGGMELVSEERLPDGSRRFTVRVDPDKSLSLTLPDAGEPVAATVTETFPEEGLVTVELASAGGSAGG [r6_177_JUSTAS],< -1
18,SAGGSVEISEEELEKLIEEGRVDKKEEYPEGVPSKKYETEKLGKELGKPITINVTTTPDGKAVAKVLKSAGG [r13_163_JUSTAS],< -1
19,SAGGSAGGSAGGKRRKITIPFKMPDGRWHPIRANMSEEQLEDIVEHHPFFKPAIKKALKKSAGGSAGGSAGG [r7_637_TrROS],< -1

row,Sequence,folding stability dG unfold [kcal/mol]
1,SAGGSAGGQKIKIDDVQKNPGNGNYYVRIRPPGKPYEYQFPPGDSADDIADELELNGIDDIEVYSAGGSAGG [r6_83_TrROS],< -1
2,SAGGSAGGSPLYIQIERRNPKNGENQTLELPIPIDGDPSDARDIAKEIAEQLPPNDYKIEVFRSAGGSAGGS [r12_871_TrROS],< -1
3,SAGGSAGGSAGGSMKIIEVPGPPEEVIEKIKEENPNAKVLSVEEDPEGGVTFKIEIEEKSAGGSAGGSAGGS [r4_95_JUSTAS],< -1
4,SAGGNAEEIRDITRDIAEKHGGEVKDVEVEPEPNGRKELTFRMKEDPNTRIKITVDNNEIKITSIQPSAGGS [r8_432_TrROS],< -1
5,SAGGSAGGSMSIPSDATLVRTYRRGGEELTVSGSVDPATGTVLSEGSLSKRPDATLTEVSVVSSAGGSAGGS [r12_6_JUSTAS],< -1
6,SAGGSAGGSASSWTLLSTEKLGSKTRTTMNDPANGKTVTIETDPANGSKVVKVENKETEIESAGGSAGGSAG [r3_297_JUSTAS],< -1
7,DFLELPGGWKVTEILEKKRLSDGTVEIKAVVKDPNNPVETEIDVKIPIPEVPEVPVEVRLIPGTGELIGILS [r1_411_JUSTAS],< -1
8,SAGAAKEVFHETFPHPAGGPVELARNPGLDWVVLYNAGTGEPTVVPVAADETLVFPAAPGGASTFAVTSAGG [r19_118_TrMRF],< -1
9,SAGMDKPVATFTRQKTPDGTEVLHVTVTTTAAGTGTTDPSTFTFPAGSDPAVVAAKVRAAGVAAVAFEPSAG [r5_37_JUSTAS],< -1
10,SAGGSPKIQIDQYNPNDYYVRIEYPGNGNTHEIPFRGSKGELAKKLEDEAEEHNMPIDVEIYPPDDSAGGSA [r2_161_TrROS],< -1
11,SAGKERTWRIYVPKNMPPGRPFEGELELNPNGERDVRISWPGGKTRKIKSPDDIKELAKSGYPIMIEPVSAG [r5_42_TrROS],< -1
12,SAGGSGNPNAPVPYIPKGYKTVPIPLKGDPNASEEELKKKLEEAKEKIKKEIDPTPDGIPIEINEGSAGGSA [r2_149_JUSTAS],< -1
13,SAGGSAGGSAGGPYLRIKWKHPENGKTREIEIPFEGKPLEEIADNIKKEHGMTVTDIEPVSAGGSAGGSAGG [r7_590_TrROS],< -1
14,SFKLPEGEEREFRLPDVPIEIEVDDGPGMIKINIYPPENPGKPVFEHEVPPGEIKPIEIPPELRDAMKKQSA [r9_1051_TrROS],< -1
15,SAGGSAGGSAGGGSVTESPSYVVTRSADPAGPALYTVTDLSTGVPSSSTVAPDAPAVVPPSAGGSAGGSAGG [r7_177_JUSTAS],< -1
16,SAGGSAGGSVKELAKKAGIKDIDVEPHPNDGWVEIKITMKNPKNGKKREGNILIRDPKDGEPLSAGGSAGGS [r12_133_TrROS],< -1
17,SAGGSAGGSYKLGSKLIKEVTSEATPGPSTLETITLEDKTYPITLVGDSLNISPELKKAIELNSAGGSAGGS [r20_92_JUSTAS],< -1
18,SAGGSAGGSISPEAAKEGPLTIEVSWMHPDGRTEEEEFPIGQPIKIPPDFKDRPPQITSIRPRSAGGSAGGS [r12_161_TrROS],< -1
19,SAGGPVYFRIKVEQRRPDPENGEPERREQTVSIPFEYDPDNGMPADEFAEELAKTLPPGIREVEIEPFSAGG [r13_335_TrROS],< -1

row,Sequence,folding stability dG unfold [kcal/mol]
1,SAGGSAGGSDKFKIDNIYPDPDMWVYRIKFPKGKSHTFPIPEENIDEFAEDDGFNVEPLGPVPSAGGSAGGS [r12_676_TrROS],< -1
2,SPTLPFPFPDGHPYMIHLNPEKNEIHIHNPESGRPYRIKVPGGKERRIPAGADSLDELKDLPPLKIEPMPSA [r9_205_TrROS],< -1
3,SAGGSAGGSAGGMPELEKEGYKVEKFTIFEPDPLKPVGEVTVLTEVPKPKLLEGGSTSGLSAGGSAGGSAGG [r7_959_JUSTAS],< -1
4,SAMSPELEELLAQLKAAAEATTDVSVFATDAAGNLRSIGPVTVTGPATSLAELRPELAARPVARVELVGSAG [r14_318_JUSTAS],< -1
5,SAGGDNVKLRFYDPNGRLKIDEINPENGNIKVEYEGPGKPRERTVDADPDEAIDEIADNFPFPLEIEKSAGG [r13_141_TrROS],< -1
6,SAGSVTATITLPSGETVTVDVAPDEERILTTPEGRLLRLTDVRPGAVAFTEGENFVPDEDGNLVPLSLLSAG [r5_417_JUSTAS],< -1
7,SKSRPIEVEFRMPYPNGGPMRMRATVLINPDNGKIGIPMRMETPGKEREYPLPPSMMNNLAKTVLDKLGLSA [r9_1136_TrROS],-0.789 ± 0.81
8,SAGGSAPVIPVKSEEEAKEVAKAASPDKDLLFKYPKGNVKLITIDPKNGPKITVKETLPVSPEKALSAGGSA [r15_577_JUSTAS],< -1
9,SAGGSAGGSAMNVKFFKLSENELRIEYNEIEEFEDGSLSEEIKTEILKLNLPEDDKKVKELLSAGGSAGGSA [r18_215_JUSTAS],< -1
10,SAPEVSVEEEEEEITDPVTGEKTTVYKITTKITLPDPNSSKKVTLTKPVIVEKTKSGTKVTEKPVFLLLSAG [r14_339_JUSTAS],< -1
11,SAGGSAGGSAGPPGEPKPKPERKTVHINIPYPPGHPEMREKARELANELQDEGAKVEIYWSAGGSAGGSAGG [r11_519_TrROS],< -1
12,SAGGSAGGSASAWEQYPNTTPGTTSKTDDVTVRTLTFPNPTTVVTVTEFPGGEVTVTTVPTPSAGGSAGGSA [r18_26_JUSTAS],< -1
13,SAGGSAGGSAGGMVTIETPDEKYEITPTPEDRVLTKVYKKGKEIIKTKDPNSDKTEILDESAGGSAGGSAGG [r7_683_JUSTAS],< -1
14,SSVNWKVLETKEEPETVVTLLENPENPELIVEVPVKRFEDPDSERREVTKTVWLPATGETLETEPAVIPLSA [r9_18_JUSTAS],< -1
15,SAGGGMMVNLKFESPTSSSTVPLPVVEIRRLPSPEYEEVVVPDGTRYLFNPKTNTLLEEKEVPPLEELSAGG [r13_636_JUSTAS],< -1
16,SAGGSAGGSAMSVSVSSPENAEKLAKEIKEKNPNEIPKITKGSGSNSYTLTLPSGKNIKVSSSAGGSAGGSA [r18_154_JUSTAS],< -1
17,SAGGSAGGGKVPKPVPGPLTILFDVAEDELPPEEIRKLFPDAKVYRFPKGLRVTVPVNGKLVPGSAGGSAGG [r6_738_TrMRF],< -1
18,SAGGMITVLEEEVEERGDELVVTRLVRVSSEEDVEALANDGVPDTAREVRRLPDGTLLAELTETVPPPSAGG [r13_506_JUSTAS],< -1
19,SAGGSAGGSAKIKLENPDNMPPEELADTIAEEAREQHPDDKNIEIPFQFPNGNPWRITVDVPSAGGSAGGSA [r18_449_TrROS],< -1
